What was measured:
Experiment in all cases: pull-down
MecA = target: T1, MecA (B. subtilis, UniProt P37958 1-218)
T1 sequence (looked up): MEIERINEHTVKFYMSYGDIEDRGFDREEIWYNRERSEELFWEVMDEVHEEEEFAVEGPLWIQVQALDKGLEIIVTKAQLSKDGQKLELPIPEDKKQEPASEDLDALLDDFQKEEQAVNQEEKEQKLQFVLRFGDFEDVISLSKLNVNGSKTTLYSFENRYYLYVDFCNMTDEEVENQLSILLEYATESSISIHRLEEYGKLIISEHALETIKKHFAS

ClpP(6His)^TRAP = ClpP(6His)^TRAP (B. subtilis, UniProt P80244 1-197, Ser98Ala)
wild-type ClpP(6His) = wild-type ClpP(6His) (B. subtilis, UniProt P80244 1-197)

| Binder | binding result (MecA) | binding result (ClpP(6His)^TRAP) | binding result (wild-type ClpP(6His)) |
| --- | --- | --- | --- |
| ClpC^NTD(1–150) (domain or fragment, B. subtilis, UniProt P37571 1-150, looked up) MMFGRFTERAQKVLALAQEEALRLGHNNIGTEHILLGLVREGEGIAAKALQALGLGSEKIQKEVESLIGRGQEMSQTIHYTPRAKKVIELSMDEARKLGHSYVGTEHILLGLIREGEGVAARVLNNLGVSLNKARQQVLQLLGSNETGSS | binds |  |  |
| ClpC NTD^EA mutant (domain or fragment, B. subtilis, UniProt P37571 1-150, looked up) MMFGRFTERAQKVLALAQEEALRLGHNNIGTAHILLGLVREGEGIAAKALQALGLGSEKIQKEVESLIGRGQEMSQTIHYTPRAKKVIELSMDEARKLGHSYVGTAHILLGLIREGEGVAARVLNNLGVSLNKARQQVLQLLGSNETGSS | binds |  |  |
| endogenous ClpP (enzyme) not shown |  | binds | binds |
